# Substitutions are numbered along the chain they refer to.
# B1: MS705/HV0LV9 antibody (anti-CD10 CDR-grafted antibody obtained from the HV0LV9MS705 strain, FERM BP-10099) (antibody, V domains shown)
# VH: EVQLVESGGGVVQPGRSLRLSCAASGFTFSSFGMHWVRQAPGKGLEWVAYISGGSYTIYYADTVKGRFTISRDNSKNTLYLQMNSLRAEDTAVYYCARSYGNFWYFDVWGQGTTVTVSS
# VL: DIVMTQSPDSLAVSLGERATIACSVSSSISSSNLHWYQQKPGQSPKPWIYGTSNLASGVPVRFSGSGSGTSYFLTISSLQAEDVATYYCQQWSSYPLTFGQGTKVEIKR
# notes: Whole antibody expressed from pKANTEX3061HV0LV9 (human constant regions)
# B2: MS705/HV0LV0 antibody (anti-CD10 CDR-grafted antibody obtained from the HV0LV0MS705 strain) (antibody, V domains shown)
# VH: B1 VH
# VL: B1 VL with A22N, S44P, P47L, W48L, V61D, S71D, Y72F, F73T, T86V
# notes: Whole antibody expressed from pKANTEX3061HV0LV0 (human constant regions from the anti-CD10 chimeric antibody expression vector)
# B3: MS705/HV2LV9 antibody (anti-CD10 CDR-grafted antibody obtained from the HV2LV9MS705 strain) (antibody, V domains shown)
# VH: B1 VH with G42E, R98S
# VL: B1 VL
# notes: Whole antibody expressed from pKANTEX3061HV2LV9 (human constant regions)
# Molecular target: T1, CD10 (membrane fraction of the CD10-high-expressing human small cell lung cancer cell line SBC-3) (human, UniProt P08473 2-750)
# T1 construct: whole, on cells; The antigen was a crude cell membrane fraction, not purified CD10 and not intact cells; also called CALLA; neutral endopeptidase
# Test: ELISA; plate coated with membrane fraction of CD10-high SBC-3 cells; peroxidase-labelled anti-human IgG(H&L); OD415
# T1 sequence (P08473 2-750): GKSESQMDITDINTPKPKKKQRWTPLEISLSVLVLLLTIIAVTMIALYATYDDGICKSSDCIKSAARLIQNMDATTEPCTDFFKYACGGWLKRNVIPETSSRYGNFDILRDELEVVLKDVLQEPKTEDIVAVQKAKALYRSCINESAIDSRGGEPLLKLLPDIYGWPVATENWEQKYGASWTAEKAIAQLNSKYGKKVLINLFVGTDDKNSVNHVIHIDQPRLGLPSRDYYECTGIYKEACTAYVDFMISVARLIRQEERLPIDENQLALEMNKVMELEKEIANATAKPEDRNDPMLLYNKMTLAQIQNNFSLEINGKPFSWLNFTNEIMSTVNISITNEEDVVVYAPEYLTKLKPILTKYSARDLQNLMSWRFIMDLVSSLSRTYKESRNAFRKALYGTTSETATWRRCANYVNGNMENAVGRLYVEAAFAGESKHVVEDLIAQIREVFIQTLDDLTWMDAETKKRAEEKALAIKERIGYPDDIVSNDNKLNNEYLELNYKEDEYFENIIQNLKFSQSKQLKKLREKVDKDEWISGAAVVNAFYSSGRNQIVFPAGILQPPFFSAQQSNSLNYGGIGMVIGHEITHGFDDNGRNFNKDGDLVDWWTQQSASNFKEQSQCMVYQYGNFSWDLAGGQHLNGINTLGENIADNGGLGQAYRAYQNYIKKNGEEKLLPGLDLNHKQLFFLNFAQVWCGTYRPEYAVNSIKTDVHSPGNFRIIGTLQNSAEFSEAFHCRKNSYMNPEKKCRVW
row,Binder,binding result
1,B1,binds
2,B2,binds
3,B3,binds

# Reference: WO2006121159A1 (dated 2006)
